Sequences and labels used below:
B1: Hairpin Ribozyme (parent)
chain: GUCCUCUUUCACGUGCGCGUGAAAGAGAGAAGUGAACCAGAGAAACACACGUUGUGGUAUAUUACCUGGUA

In the series the parent is B1. Briefly: self-cleavage, relative activity (ratio to wild type); higher = more cleavage; co-transcriptional.
Consider A22G C48G, for which the self-cleavage came to 0.136.

For the variant A26G G29C, the self-cleavage came to 0.139.

As to U20G C50U, the self-cleavage worked out at 0.42.

For C18A U60C, the self-cleavage came out at 1.1.

On to C18U G57A, for which the self-cleavage was determined as 0.188.

In the case of C37A U53G, the self-cleavage was determined as 0.23.

As to A26C A28C, the self-cleavage came out at 0.329.

C3U G56A: the self-cleavage came out at 0.16.

Take A31G U70C: the self-cleavage is 0.751.

For U9G A41C, the self-cleavage came to 0.693.

For the variant A31C A59C, the self-cleavage is 0.103.

For the variant A43G C65A, the self-cleavage is 0.0913.

With G13C G19U, the self-cleavage worked out at 0.752.

Regarding A28U U53C, the self-cleavage came out at 0.769.

For the variant U70C A71C, the self-cleavage is 1.79.

U53C A59U: the self-cleavage was 0.166.

U52G G57U: the self-cleavage worked out at 0.232.

For A28U G34U, the self-cleavage was 1.41.

For A45G C65A, the self-cleavage amounted to 0.349.

Regarding A35G U70G, the self-cleavage was 0.711.

For U8G A44G, the self-cleavage worked out at 0.148.

For U8A A22C, the self-cleavage came to 0.594.

C18G A26C: the self-cleavage came out at 0.489.

Take C4G A71U: the self-cleavage is 0.289.

G29C: the self-cleavage came out at 0.133.

On to C16U G21C, for which the self-cleavage came out at 0.749.

G29U U63C: the self-cleavage turned out to be 0.084.

G15U U60G: the self-cleavage was 0.57.

For the variant C16U G34U, the self-cleavage was determined as 0.885.

For C6U C37A, the self-cleavage was 0.286.

In the case of A30C C38A, the self-cleavage was 0.183.

Turning to G25A G40C, the self-cleavage was determined as 0.145.

In the case of G25A A39C, the self-cleavage was 0.374.

Consider G13U A44U, for which the self-cleavage was found to be 0.147.

Consider G54U U67A, for which the self-cleavage turned out to be 0.207.

Take A30U C48U: the self-cleavage came to 0.197.

Consider A26C A41U, for which the self-cleavage is 0.74.

Consider A28U C50U, for which the self-cleavage was 0.1.

Take U58A U60C: the self-cleavage was 0.715.

Take A31G G42C: the self-cleavage was determined as 0.278.

Take G17A U60G: the self-cleavage is 0.581.

Turning to G27C G29A, the self-cleavage is 0.138.

Take G19U U70G: the self-cleavage is 0.79.

As for C37U U60A, the self-cleavage was 0.352.

For the variant A31U U52G, the self-cleavage turned out to be 0.117.

With A30C C65A, the self-cleavage was found to be 0.0386.

For A36U A71C, the self-cleavage was found to be 0.959.

Turning to G34A C66U, the self-cleavage was determined as 0.609.

Consider G19C C38U, for which the self-cleavage is 0.489.

Regarding U7G U60A, the self-cleavage was determined as 0.795.

With C16A A35G, the self-cleavage was 1.06.

In the case of C38A C65U, the self-cleavage was 0.204.

Turning to G21A C50A, the self-cleavage was found to be 0.306.

A35C A41C: the self-cleavage was 1.13.

For C6U A26U, the self-cleavage worked out at 0.414.

Regarding A22C A41C, the self-cleavage was determined as 1.22.

C4A C16U: the self-cleavage was determined as 0.197.

As to A30U U63G, the self-cleavage was 0.0835.

For the variant G15A U20C, the self-cleavage came to 0.864.

In the case of C6A A39C, the self-cleavage is 0.436.

Take U7G A24U: the self-cleavage is 0.685.

In the case of U20C A24G, the self-cleavage worked out at 0.758.

In the case of A43U U53G, the self-cleavage is 0.046.

Take G15U U63C: the self-cleavage was found to be 0.14.

C3A A11U: the self-cleavage was determined as 0.517.

On to C4A G57A, for which the self-cleavage amounted to 0.117.

Turning to U9A A36C, the self-cleavage amounted to 0.456.

As for A47C G54U, the self-cleavage came to 0.241.

Turning to A47C G54C, the self-cleavage stood at 0.228.

Turning to G1A A30G, the self-cleavage stood at 0.231.

As for A35C G54C, the self-cleavage turned out to be 0.513.

As for U8A G32A, the self-cleavage is 0.141.

As for C38U U60A, the self-cleavage amounted to 0.428.

As for G51U G68C, the self-cleavage is 0.274.

Take C3U A23C: the self-cleavage came to 0.408.

Turning to A30G A39C, the self-cleavage is 0.106.

Turning to C6A A49U, the self-cleavage came out at 0.162.

Turning to A59U G68C, the self-cleavage was 0.0787.

On to C4U A23U, for which the self-cleavage turned out to be 0.315.

Consider G13U G17C, for which the self-cleavage amounted to 0.494.

In the case of C18A G68C, the self-cleavage worked out at 0.18.

On to C48G C65A, for which the self-cleavage turned out to be 0.22.

For the variant C48G C65U, the self-cleavage is 0.166.

As to G34C A44C, the self-cleavage amounted to 0.116.

In the case of U20G U60C, the self-cleavage was 0.815.

In the case of G15A A36G, the self-cleavage stood at 1.08.

Turning to G21U A44U, the self-cleavage was found to be 0.165.

With A31G U62G, the self-cleavage was determined as 0.199.

Turning to U5A A61U, the self-cleavage came out at 0.185.

U14A U67C: the self-cleavage was 0.247.

With G25A U53G, the self-cleavage amounted to 0.524.

For the variant A45G A59C, the self-cleavage stood at 0.151.

Turning to A35G C37U, the self-cleavage worked out at 0.302.

On to G19A C50A, for which the self-cleavage stood at 0.278.

Take C50A A61U: the self-cleavage came out at 0.281.

As for U5G U20C, the self-cleavage was found to be 0.337.

On to U33A U67G, for which the self-cleavage is 0.169.

Regarding G27A C66G, the self-cleavage was 0.133.

As to C3A C10G, the self-cleavage worked out at 0.631.

In the case of C16U G68U, the self-cleavage stood at 0.329.

As for G29A A41G, the self-cleavage came out at 0.106.

As for C6U U33A, the self-cleavage is 0.148.

For the variant G69A U70C, the self-cleavage came to 0.387.

Consider G27C G57U, for which the self-cleavage stood at 0.174.

For the variant A44G G69A, the self-cleavage stood at 0.0936.

On to A28U A45C, for which the self-cleavage was 0.0951.

In the case of U33A U58C, the self-cleavage was 0.0877.

U9A A23C: the self-cleavage worked out at 0.501.

With U14G G29C, the self-cleavage worked out at 0.169.

On to C12U A26C, for which the self-cleavage was 0.481.

For the variant G34U A59U, the self-cleavage is 0.192.

For A11U G56U, the self-cleavage came to 0.131.

Regarding A11U G42U, the self-cleavage came out at 0.171.

Take U2G G54U: the self-cleavage turned out to be 0.128.

Regarding A22U G29A, the self-cleavage amounted to 0.13.

As to A43G A45G, the self-cleavage amounted to 0.104.

On to A24U A31U, for which the self-cleavage came to 0.0897.

A31G C65A: the self-cleavage is 0.891.

As for C10G U60G, the self-cleavage is 0.442.

G56C U63C: the self-cleavage was found to be 0.17.

In the case of C48G U62G, the self-cleavage came to 0.107.

Take C37U A49C: the self-cleavage is 0.0924.

In the case of C3U A36C, the self-cleavage was found to be 0.369.

For U33G U70A, the self-cleavage turned out to be 0.121.

For the variant U2G C3G, the self-cleavage was found to be 0.785.

In the case of C10A G42C, the self-cleavage stood at 0.235.

Turning to G21C A43U, the self-cleavage was found to be 0.0826.

Regarding C3A C4A, the self-cleavage was 0.204.

In the case of U8G A26C, the self-cleavage stood at 0.25.

Take A64C G68A: the self-cleavage was found to be 0.18.

Consider U14C A44U, for which the self-cleavage is 0.0783.

As to U5G C10A, the self-cleavage was determined as 0.235.

Consider C4U U58C, for which the self-cleavage was found to be 0.495.

As to A23C G57A, the self-cleavage turned out to be 0.196.

With A43C U70C, the self-cleavage worked out at 0.164.

As to G29A A39U, the self-cleavage stood at 0.107.

Regarding G15C A71U, the self-cleavage turned out to be 0.793.

For the variant G25U U33A, the self-cleavage came to 0.0923.

Take C3A U52G: the self-cleavage is 0.538.

For the variant U20G A64C, the self-cleavage stood at 0.184.

In the case of G13C A43C, the self-cleavage turned out to be 0.0516.

Take U33C C50G: the self-cleavage was 0.0836.

As for A11C A45G, the self-cleavage was found to be 0.162.

On to U8C U53C, for which the self-cleavage stood at 0.766.

U14A A64C: the self-cleavage stood at 0.254.

In the case of C4U A22G, the self-cleavage was determined as 0.236.

As to A23U A61C, the self-cleavage worked out at 0.126.

For the variant G34A G57C, the self-cleavage worked out at 0.247.

For A36G U58A, the self-cleavage worked out at 0.836.

With G40A U60G, the self-cleavage is 0.214.

On to U8A U67G, for which the self-cleavage came out at 0.237.

Consider A45C A47U, for which the self-cleavage stood at 0.212.

Consider G34A U52C, for which the self-cleavage stood at 0.857.

For G27U A59U, the self-cleavage is 0.146.

Turning to A24G A35C, the self-cleavage worked out at 0.82.

In the case of G21C G27A, the self-cleavage was determined as 0.186.

In the case of C12A A49U, the self-cleavage turned out to be 0.256.

As for G17A G29C, the self-cleavage worked out at 0.169.

For C16A C37U, the self-cleavage came out at 0.519.

On to G27C G51A, for which the self-cleavage came to 0.266.

Take C3U A41G: the self-cleavage came out at 0.643.

With C18G G29U, the self-cleavage amounted to 0.201.

For G42A U63C, the self-cleavage came to 0.113.

With C38G A45G, the self-cleavage amounted to 0.259.

For the variant U9A C12U, the self-cleavage was determined as 0.645.

Consider U58C G68A, for which the self-cleavage stood at 0.301.

Turning to G27U A30U, the self-cleavage is 0.116.
